What follows are sequences tested against RPA (full-length heterotrimer RPA1/RPA2/RPA3) (human) (UniProt P27694+P15927+P35244) (assay: FP). Settings: 18-carbon spacer (sp18) at 5' end; FP: 0.060 uM FAM-oligo, 10-1500 mM NaCl, room temperature; CD: Buffer A 25 mM Tris pH 7.5, 2 mM MgCl2, 6% glycerol, 1 mM DTT, 100 (or 10) mM ….
Design: unit not given here

RPA (full-length heterotrimer RPA1/RPA2/RPA3) (human), sequence (P27694 whole entry, chain 1 of 3): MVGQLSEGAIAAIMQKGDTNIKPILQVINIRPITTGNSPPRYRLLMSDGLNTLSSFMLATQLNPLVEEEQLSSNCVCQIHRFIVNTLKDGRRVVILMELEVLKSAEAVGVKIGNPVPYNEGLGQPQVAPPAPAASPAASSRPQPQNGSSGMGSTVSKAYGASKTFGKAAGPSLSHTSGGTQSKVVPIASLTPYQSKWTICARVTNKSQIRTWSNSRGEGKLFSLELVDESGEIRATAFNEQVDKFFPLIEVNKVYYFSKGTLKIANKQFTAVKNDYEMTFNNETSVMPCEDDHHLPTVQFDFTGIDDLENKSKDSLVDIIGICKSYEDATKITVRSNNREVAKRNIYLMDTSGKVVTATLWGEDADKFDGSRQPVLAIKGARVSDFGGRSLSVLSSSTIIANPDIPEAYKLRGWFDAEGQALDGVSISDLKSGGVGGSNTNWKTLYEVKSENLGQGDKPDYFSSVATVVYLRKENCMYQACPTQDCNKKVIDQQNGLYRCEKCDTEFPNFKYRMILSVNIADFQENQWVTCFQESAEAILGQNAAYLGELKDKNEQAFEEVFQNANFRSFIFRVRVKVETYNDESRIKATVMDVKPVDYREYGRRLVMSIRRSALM
RPA (full-length heterotrimer RPA1/RPA2/RPA3) (human), sequence (P15927 whole entry, chain 2 of 3): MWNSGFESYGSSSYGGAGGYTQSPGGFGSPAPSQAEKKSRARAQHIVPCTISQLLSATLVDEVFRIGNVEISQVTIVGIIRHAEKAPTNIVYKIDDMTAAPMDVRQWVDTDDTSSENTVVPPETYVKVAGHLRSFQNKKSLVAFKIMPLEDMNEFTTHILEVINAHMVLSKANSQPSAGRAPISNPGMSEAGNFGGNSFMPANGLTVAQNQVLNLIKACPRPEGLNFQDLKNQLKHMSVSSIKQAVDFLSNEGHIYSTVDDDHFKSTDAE
RPA (full-length heterotrimer RPA1/RPA2/RPA3) (human), sequence (P35244 whole entry, chain 3 of 3): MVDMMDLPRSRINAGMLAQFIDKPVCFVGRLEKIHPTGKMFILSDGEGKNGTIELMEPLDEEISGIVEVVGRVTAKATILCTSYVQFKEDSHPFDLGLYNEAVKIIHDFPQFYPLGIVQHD

Sequence	Kd
ATCCCCTTCCCAACCTCACCCAA [Anti (Comp)]	0.07
TAGGGGAAGGGTTGGAGTGGGTT [Gq23 (FP)]	0.05
AAAAAAAAAAAAAAAAAAAAAAA [polyA]	0.07
